Consider 57 substances from patent US12065471B2, “B*44 restricted peptides for use in immunotherapy against cancers and related methods” (Immatics Biotechnologies GmbH, priority 2018, dated 2024).

The experiment has as its target HLA-B*44:05 (Homo sapiens, UniProt P01889, A223V/A65T/A93T/A95T/D201E/D98Y/E176V/E187L/E204Q/E69K/G107R/H137Y/K202T/L105A/L119I/N104T/N87E/Q56L/Q94N/R106L/R155S/R180D/S101N/S121R/S35A/S48T/T118I/V36M/W191S/Y91S). Nature of the experiment: MHC binding assay (UV-ligand exchange, β2m ELISA, peptide exchange yield). The following applies: binding to HLA-B*44:05. From the text: Candidate peptides for T cell-based therapies according to the present invention were further tested for their MHC binding capacity (affinity). The individual peptide-MHC complexes were produced by UV-ligand exchange, where a UV-sensitive peptide is cleaved upon UV-irradiation and exchanged with the peptide of interest as analyzed. Only peptide candidates that can effectively bind and stabilize the peptide-receptive MHC molecules prevent dissociation of the MHC complexes. To determine the yield of the exchange reaction, an ELISA was performed based on the detection of the light chain (β2m) of stabilized MHC complexes. The assay was performed as generally described in Rodenko et al. (Rodenko et al., 2006)
96 well MAXISorp plates (NUNC) were coated over night with 2 μg/ml streptavidin in PBS at room temperature, washed 4× and blocked for 1 h at 37° C. in 2% BSA containing blocking buffer. Refolded HLA-A*02:01/MLA-001 monomers served as standards, covering the range of 15-500 ng/ml. Peptide-MHC monomers of the UV-exchange reaction were diluted 100-fold in blocking buffer. Samples were incubated for 1h at 37° C., washed four times, incubated with 2 μg/ml HRP conjugated anti-β2m for 1h at 37° C., washed again and detected with TMB solution that is stopped with […]. Absorption was measured at 450 nm.
On the technique in general: An ELISA detects its analyte on a solid surface through an enzyme-linked reagent.
Consider “157 (SQDVAGTTF; listed as Homo sapiens) [compound 157]”, for which the “Peptide exchange (MHC class I binding score, peptide exchange yield)” value (“Peptide exchange” below) is “++ (>20% = ++)”.
In the case of “336 (QEVNISLHY; listed as Homo sapiens) [compound 336]”, the “Peptide exchange” value was “++++ (>75% = ++++)”.
“108 (QETNKVETY; listed as Homo sapiens) [compound 108]”: the “Peptide exchange” value is “+++ (>50 = +++)”.
For “64 (EEYQDSFERY; listed as Homo sapiens) [compound 64]”, the “Peptide exchange” value is listed as “++ (>20% = ++)”.
As for “122 (GESVSWHLF; listed as Homo sapiens) [compound 122]”, the entry is “+++ (>50 = +++)”; as for “207 (LEGGGRGGEF; listed as Homo sapiens) [compound 207]”, “++ (>20% = ++)”; as for “173 (SEHSLEGQKF; listed as Homo sapiens) [compound 173]”, “+++ (>50 = +++)”.
The same measure for “433 (AEEGPSVPKIY; listed as Homo sapiens) [compound 433]”: “+++ (>50 = +++)”; for “233 (QEDKATQTL; listed as Homo sapiens) [compound 233]”: “++++ (>75% = ++++)”; for “205 (MEIEGAGNFL; listed as Homo sapiens) [compound 205]”: “++++ (>75% = ++++)”.
For “74 (AELEGALQKA; listed as Homo sapiens) [compound 74]”, the “Peptide exchange” value is “++ (>20% = ++)”.
As for “278 (DQVTVFLHF; listed as Homo sapiens) [compound 278]”, the “Peptide exchange” value is given as “+ (>10% = +)”.
Regarding “412 (EESFDSKFY; listed as Homo sapiens) [compound 412]”, the “Peptide exchange” value was “+++ (>50 = +++)”.
In the case of “405 (YEHAFNSIVW; listed as Homo sapiens) [compound 405]”, the “Peptide exchange” value is given as “++++ (>75% = ++++)”.
Take “423 (KEAINLLKNY; listed as Homo sapiens) [compound 423]”: the “Peptide exchange” value is “+++ (>50 = +++)”.
For the substance “344 (DEIRVFGY; listed as Homo sapiens) [compound 344]”, the “Peptide exchange” value is “++ (>20% = ++)”.
Consider “150 (SEVFHVSEA; listed as Homo sapiens) [compound 150]”, for which the “Peptide exchange” value was “++ (>20% = ++)”.
Consider “403 (QESVHVASY; listed as Homo sapiens) [compound 403]”, for which the “Peptide exchange” value is “++++ (>75% = ++++)”.
As for “247 (KESMLKTTL; listed as Homo sapiens) [compound 247]”, the entry is “+++ (>50 = +++)”; as for “155 (TEDARHPESW; listed as Homo sapiens) [compound 155]”, “++++ (>75% = ++++)”.
In the case of “263 (AEQLRGFNA; listed as Homo sapiens) [compound 263]”, the “Peptide exchange” value is listed as “+++ (>50 = +++)”.
Consider “76 (RLNEHPSNNW; listed as Homo sapiens) [compound 76]”, for which the “Peptide exchange” value is reported as “++ (>20% = ++)”.
Consider “183 (KEMQVTISQQL; listed as Homo sapiens) [compound 183]”, for which the “Peptide exchange” value is recorded as “++++ (>75% = ++++)”.
Turning to “428 (AEEKAAVTSL; listed as Homo sapiens) [compound 428]”, the “Peptide exchange” value is “+++ (>50 = +++)”.
With “378 (QELFLQEVRM; listed as Homo sapiens) [compound 378]”, the “Peptide exchange” value is “+++ (>50 = +++)”.
For “386 (EESDYITHY; listed as Homo sapiens) [compound 386]”, the “Peptide exchange” value is on record as “+++ (>50 = +++)”.
Turning to “342 (SENKKWVEF; listed as Homo sapiens) [compound 342]”, the “Peptide exchange” value was “++ (>20% = ++)”.
Regarding “170 (REMFVFKDQW; listed as Homo sapiens) [compound 170]”, the “Peptide exchange” value is “++++ (>75% = ++++)”.
Take “93 (SEAGLTANQY; listed as Homo sapiens) [compound 93]”: the “Peptide exchange” value is listed as “+++ (>50 = +++)”.
Regarding “394 (SEILRVTLY; listed as Homo sapiens) [compound 394]”, the “Peptide exchange” value is “+++ (>50 = +++)”.
For the substance “376 (SESDGIEQL; listed as Homo sapiens) [compound 376]”, the “Peptide exchange” value is reported as “+++ (>50 = +++)”.
As for “234 (TEEPQRLFY; listed as Homo sapiens) [compound 234]”, the “Peptide exchange” value is given as “+ (>10% = +)”.
“298 (KEVASNSEL; listed as Homo sapiens) [compound 298]”: the “Peptide exchange” value is given as “+++ (>50 = +++)”.
For “271 (REDLVGPEV; listed as Homo sapiens) [compound 271]”, the “Peptide exchange” value is given as “+++ (>50 = +++)”.
The same measure for “162 (EAYDIELNKW; listed as Homo sapiens) [compound 162]”: “+++ (>50 = +++)”; for “158 (VEEERYTGQW; listed as Homo sapiens) [compound 158]”: “+++ (>50 = +++)”.
As for “91 (EESLLSSWDF; listed as Homo sapiens) [compound 91]”, the “Peptide exchange” value was “+++ (>50 = +++)”.
For the substance “305 (AEKNRRDAETW; listed as Homo sapiens) [compound 305]”, the “Peptide exchange” value is “++++ (>75% = ++++)”.
Regarding “143 (HEIIIRSHW; listed as Homo sapiens) [compound 143]”, the “Peptide exchange” value is given as “+++ (>50 = +++)”.
For the substance “315 (MEQQSQEY; listed as Homo sapiens) [compound 315]”, the “Peptide exchange” value is “+++ (>50 = +++)”.
As for “439 (VEVGDRTDW; listed as Homo sapiens) [compound 439]”, the entry is “+++ (>50 = +++)”.
As for “274 (DEIDKLTGY; listed as Homo sapiens) [compound 274]”, the entry is “++ (>20% = ++)”.
In the case of “328 (HENGVLTKF; listed as Homo sapiens) [compound 328]”, the “Peptide exchange” value is listed as “++ (>20% = ++)”.
As for “176 (GETQQHIQL; listed as Homo sapiens) [compound 176]”, the entry is “+++ (>50 = +++)”.
Regarding “402 (IETSSEYFNF; listed as Homo sapiens) [compound 402]”, the “Peptide exchange” value was “+++ (>50 = +++)”.
Consider “264 (RELIKAIGL; listed as Homo sapiens) [compound 264]”, for which the “Peptide exchange” value is reported as “+++ (>50 = +++)”.
For “245 (MEFQGPMPAGM; listed as Homo sapiens) [compound 245]”, the “Peptide exchange” value is “+++ (>50 = +++)”.
The same measure for “159 (EEVQDGKVI; listed as Homo sapiens) [compound 159]”: “++ (>20% = ++)”.
As for “129 (EEAMKRLSY; listed as Homo sapiens) [compound 129]”, the entry is “++ (>20% = ++)”.
Turning to “267 (VELEVPQL; listed as Homo sapiens) [compound 267]”, the “Peptide exchange” value is reported as “++ (>20% = ++)”.
As to “75 (LETSCGSSTAY; listed as Homo sapiens) [compound 75]”, the “Peptide exchange” value is “+ (>10% = +)”.
Take “180 (EEHSSKLQTSL; listed as Homo sapiens) [compound 180]”: the “Peptide exchange” value is listed as “++++ (>75% = ++++)”.
The same measure for “206 (SEDPEKYYL; listed as Homo sapiens) [compound 206]”: “+++ (>50 = +++)”.
Turning to “284 (SQYPHTHTF; listed as Homo sapiens) [compound 284]”, the “Peptide exchange” value is “+++ (>50 = +++)”.
Turning to “151 (TELQIPSF; listed as Homo sapiens) [compound 151]”, the “Peptide exchange” value is “++ (>20% = ++)”.
As to “1 (KEVDPASNTYTL; listed as Homo sapiens) [compound 1]”, the “Peptide exchange” value is listed as “++ (>20% = ++)”.
On to “443 (EEYAGQITL; listed as Homo sapiens) [compound 443]”, for which the “Peptide exchange” value is on record as “+++ (>50 = +++)”.
